Measured values as given in US20260242478A1 (published 2026).
Where no end group is shown, it is not given here.

Assays:
[1] = biological target: T1, anti-CD28 scFv (VH - linker 1 - VL) (biotinylated (site not stated)); assay: same phage ELISA, wells pre-incubated with soluble CD28 (competitor)
[2] = biological target: T1, anti-CD28 scFv (VH - linker 1 - VL); assay: phage ELISA; biotinylated anti-CD28 scFv on neutravidin plate, clonal phage supernatant, anti-M13-HRP detection;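 note: before phage addition, wells were pretreated with soluble CD28 protein in blocking buffer, or with blocking buffer only as the comparison, then phage were added without washing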
Description: Clonal phage were harvested as crude supernatants and screened via standard enzyme linked immunosorbent assays (ELISAs). […] Prior to the addition of clonal phage, wells were incubated with blocking buffer and CD28 soluble protein or blocking buffer alone. Without washing or aspirating, clonal phage supernatants were then added to the wells and incubated for a short time. Wells were then washed followed by detection of bound phage using a horse radish peroxidase conjugated anti-M13 antibody.

[3] = biological target: T2, Anti-CD28 Fab (SEQ ID NOs: 696, 697); assay: phage binding ELISA; Fab wells pre-incubated with CD28 antigen as competitor, anti-M13 HRP
T2 construct: Biotinylated and captured on neutravidin coated plates in the phage ELISA
T2 sequence (VH, as listed by the source, chain 1 of 2): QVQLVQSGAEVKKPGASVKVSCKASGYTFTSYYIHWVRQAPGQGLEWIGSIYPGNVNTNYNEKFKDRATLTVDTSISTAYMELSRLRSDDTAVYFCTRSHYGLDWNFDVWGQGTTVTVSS
T2 sequence (VL, as listed by the source, chain 2 of 2): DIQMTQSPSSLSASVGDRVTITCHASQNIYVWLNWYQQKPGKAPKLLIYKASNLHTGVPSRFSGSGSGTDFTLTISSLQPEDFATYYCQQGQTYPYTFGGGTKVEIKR
Description: (§1) After panning, phage infected bacteria were plated out and colonies picked into 96 well blocks. Clonal phage was then amplified and separated from bacterial cells via centrifugation.
(§2) Clonal phage were harvested as crude supematants and screened via standard ELISAs. […] Prior to the addition of clonal phage, wells were incubated with blocking buffer and CD28 antigen or blocking buffer alone. Without washing or aspirating, clonal phage supematants were then added to the wells and incubated for a short time. Wells were then washed followed by detection of bound phage using a horse radish conjugated anti-M13 antibody. Clonal phage of interest were then sent for sequence analysis.

[4] = biological target: T2, Anti-CD28 Fab (SEQ ID NOs: 696, 697); assay: phage binding ELISA; biotinylated Fab on neutravidin plate, clonal phage supernatant, anti-M13 HRP;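 note: clones picked after panning, added to wells pre-incubated with CD28 antigen or with blocking buffer only, no wash before phage addition, bound phage read after washing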
Description: as §1, §2

[5] = biological target: T3, Anti-CD28 Fab (SEQ ID NOs: 696, 697); assay: phage binding ELISA; Fab-coated wells pre-incubated with CD28 antigen as competitor, anti-M13 HRP detection;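 note: crude clonal phage supernatants from panned colonies added to wells after blocking buffer plus CD28 treatment, bound phage measured after a brief incubation and washing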
T3 construct: Biotinylated and captured on neutravidin coated plates in the phage ELISA
T3 sequence (VH, as listed by the source, chain 1 of 2): as the sequence (VH, as listed by the source, chain 1 of 2) above
T3 sequence (VL, as listed by the source, chain 2 of 2): as the sequence (VL, as listed by the source, chain 2 of 2) above
Description: as §1, §2

[6] = biological target: T3, Anti-CD28 Fab (SEQ ID NOs: 696, 697); assay: phage binding ELISA; biotinylated anti-CD28 Fab on neutravidin plate, clonal phage supernatant, anti-M13 HRP detection

T1 sequence (scFv, as listed by the source): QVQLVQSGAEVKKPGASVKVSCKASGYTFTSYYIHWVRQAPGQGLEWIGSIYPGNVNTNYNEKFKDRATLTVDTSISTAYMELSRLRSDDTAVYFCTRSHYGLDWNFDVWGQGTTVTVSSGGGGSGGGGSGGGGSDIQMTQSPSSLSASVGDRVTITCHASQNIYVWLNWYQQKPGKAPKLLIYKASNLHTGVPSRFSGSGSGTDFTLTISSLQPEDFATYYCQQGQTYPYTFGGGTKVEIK

In the case of MDWCPRFMWDECFN (peptide, not shown: large carriers, Clonal phage supernatant) [Phage-33], the “CD28 scFv signal in presence of CD28” value [1] is reported as 0.256 and the “CD28 scFv signal” value [2] is reported as 2.68.

B1: Phage-526 (peptide)
peptide: YCEGHSPEYMAKCL
modifications: cysteine pairing not given here; also: displayed on phage as fusion to pIII, linker, pIII sequence and order not given here
notes: Clonal phage supernatant; not shown: pIII filament protein of the bacteriophage to which the peptide is fused
For B1, the “Anti-CD28 Fab signal in the presence of CD28” value [3] was 0.07 and the “Anti-CD28 Fab (SEQ ID NOs: 696, 697) signal” value [4] was 2.35.

In the case of MDWCPIHLWHVCFN (peptide, not shown: large carriers, cysteine pairing not given here; also: displayed as fusion to phage pIII, Clonal phage supernatant) [Phage-20], the “CD28 scFv signal in presence of CD28” value [1] is reported as 0.167 and the “CD28 scFv signal” value [2] is reported as 2.53.

B2: Phage-527 (peptide)
peptide: YCDGHLPEYMSKCL
modifications: cysteine pairing not given here; also: displayed on phage as fusion to pIII, linker, pIII sequence and order not given here
notes: as for B1
For B2, the “Anti-CD28 Fab signal in the presence of CD28” value [3] was 0.14 and the “Anti-CD28 Fab (SEQ ID NOs: 696, 697) signal” value [4] was 2.35.

B3: Phage-530 (peptide)
peptide: YCDGHLPEYMMKCL
modifications: cysteine pairing not given here; also: displayed on phage as fusion to pIII, linker, pIII sequence and order not given here
notes: as for B1
For B3, the “Anti-CD28 Fab signal in the presence of CD28” value [3] was 0.11 and the “Anti-CD28 Fab (SEQ ID NOs: 696, 697) signal” value [4] was 2.34.

B4: Phage-536 (peptide)
peptide: YCDGHLPIYMSKCL
modifications: cysteine pairing not given here; also: displayed on phage as fusion to pIII, linker, pIII sequence and order not given here
notes: as for B1
In the case of B4, the “Anti-CD28 Fab signal in the presence of CD28” value [3] is reported as 0.08 and the “Anti-CD28 Fab (SEQ ID NOs: 696, 697) signal” value [4] is reported as 2.32.

B5: Phage-528 (peptide)
peptide: YCDGHLPQYMAKCL
modifications: cysteine pairing not given here; also: displayed on phage as fusion to pIII, linker, pIII sequence and order not given here
notes: as for B1
B5 was tested, and the “Anti-CD28 Fab signal in the presence of CD28” value [3] was 0.15 and the “Anti-CD28 Fab (SEQ ID NOs: 696, 697) signal” value [4] was 2.35.

B6: Phage-34 (peptide, not shown: large carriers)
peptide: MDWCPRHMWNYCFA
modifications: cysteine pairing not given here; also: displayed on phage as fusion to pIII, linker and pIII sequence not given here
notes: Clonal phage supernatant
B6 was tested, and the “CD28 scFv signal in presence of CD28” value [1] was 0.242 and the “CD28 scFv signal” value [2] was 2.71.

B7: Phage-491 (peptide, not shown: large carriers)
peptide: HCSGHHWLQVWKCF
notes: Clonal phage of the Peptide-87 optimisation library, tested as crude supernatant
With B7 the “Anti-CD28 Fab signal in the presence of CD28 (phage binding ELISA)” value [5] was 0.07 and the “Anti-CD28 Fab signal (phage binding ELISA)” value [6] was 2.31.

B8: Phage-26 (peptide, not shown: large carriers)
peptide: MDWCPRDLWHECFA
modifications: cysteine pairing not given here; also: phage-displayed pIII fusion, pIII and linker not given here
notes: Clonal phage supernatant
With B8 the “CD28 scFv signal in presence of CD28” value [1] was 0.277 and the “CD28 scFv signal” value [2] was 2.71.

B9: Phage-492 (peptide, not shown: large carriers)
peptide: YCWSHSPPFIKKCY
notes: as for B7
With B9 the “Anti-CD28 Fab signal in the presence of CD28 (phage binding ELISA)” value [5] was 0.06 and the “Anti-CD28 Fab signal (phage binding ELISA)” value [6] was 2.06.

B10: Phage-499 (peptide, not shown: large carriers)
peptide: YCEGHAPEYMAKCL
notes: as for B7
For B10, the “Anti-CD28 Fab signal in the presence of CD28 (phage binding ELISA)” value [5] was 0.08 and the “Anti-CD28 Fab signal (phage binding ELISA)” value [6] was 2.47.

For MDWCPLYLWNECFN (peptide, not shown: large carriers, Clonal phage supernatant) [Phage-24], the “CD28 scFv signal in presence of CD28” value [1] was 0.247 and the “CD28 scFv signal” value [2] was 2.61.

B11: Phage-487 (peptide, not shown: large carriers)
peptide: YCEGHLPEYREKCL
notes: as for B7
B11 was tested, and the “Anti-CD28 Fab signal in the presence of CD28 (phage binding ELISA)” value [5] was 0.07 and the “Anti-CD28 Fab signal (phage binding ELISA)” value [6] was 1.96.

B12: Phage-493 (peptide, not shown: large carriers)
peptide: YCEGHLPEYRNKCL
notes: as for B7
For B12, the “Anti-CD28 Fab signal in the presence of CD28 (phage binding ELISA)” value [5] was 0.17 and the “Anti-CD28 Fab signal (phage binding ELISA)” value [6] was 2.38.

B13: Phage-30 (peptide, not shown: large carriers)
peptide: MDWCPRDMWDECFA
modifications: cysteine pairing not given here; also: peptide displayed as fusion to phage pIII
notes: Clonal phage supernatant
B13 was tested, and the “CD28 scFv signal in presence of CD28” value [1] was 0.25 and the “CD28 scFv signal” value [2] was 2.59.

MDWCPRDMWSECFA (peptide, not shown: large carriers, Clonal phage supernatant) [Phage-31] was tested, and the “CD28 scFv signal in presence of CD28” value [1] was 0.293 and the “CD28 scFv signal” value [2] was 2.7.

B14: Phage-9 (peptide, not shown: large carriers)
peptide: MDWCPRERWVDCFF
modifications: cysteine pairing not given here; also: displayed on phage as fusion to pIII, linker not given here
notes: Clonal phage supernatant
In the case of B14, the “CD28 scFv signal in presence of CD28” value [1] is reported as 0.489 and the “CD28 scFv signal” value [2] is reported as 2.04.

B15: Phage-27 (peptide, not shown: large carriers)
peptide: MDWCPRDLWHLCFS
modifications: cysteine pairing not given here; also: displayed on phage as fusion to pIII, linker and pIII sequence not given here
notes: Clonal phage supernatant
With B15 the “CD28 scFv signal in presence of CD28” value [1] was 0.29 and the “CD28 scFv signal” value [2] was 2.59.

B16: Phage-497 (peptide, not shown: large carriers)
peptide: YCEGHAPEYIGKCL
notes: as for B7
In the case of B16, the “Anti-CD28 Fab signal in the presence of CD28 (phage binding ELISA)” value [5] is reported as 0.07 and the “Anti-CD28 Fab signal (phage binding ELISA)” value [6] is reported as 2.1.

For MDWCPIYLWSECFN (peptide, not shown: large carriers, Clonal phage supernatant) [Phage-21], the “CD28 scFv signal in presence of CD28” value [1] was 0.513 and the “CD28 scFv signal” value [2] was 2.63.

B17: Phage-495 (peptide, not shown: large carriers)
peptide: YCEGHLPEYIQKCL
notes: as for B7
B17 was tested, and the “Anti-CD28 Fab signal in the presence of CD28 (phage binding ELISA)” value [5] was 0.08 and the “Anti-CD28 Fab signal (phage binding ELISA)” value [6] was 1.9.

B18: Phage-496 (peptide, not shown: large carriers)
peptide: YCEGHLPEYIWKCL
notes: as for B7
With B18 the “Anti-CD28 Fab signal in the presence of CD28 (phage binding ELISA)” value [5] was 0.09 and the “Anti-CD28 Fab signal (phage binding ELISA)” value [6] was 2.32.

B19: Phage-25 (peptide, not shown: large carriers)
peptide: MDWCPRDLWDLCFA
modifications: cysteine pairing not given here; also: phage-displayed pIII fusion, pIII and linker not given here
notes: Clonal phage supernatant
With B19 the “CD28 scFv signal in presence of CD28” value [1] was 0.219 and the “CD28 scFv signal” value [2] was 2.7.

B20: Phage-498 (peptide, not shown: large carriers)
peptide: YCDGHSPIYMWKCL
notes: as for B7
For B20, the “Anti-CD28 Fab signal in the presence of CD28 (phage binding ELISA)” value [5] was 0.09 and the “Anti-CD28 Fab signal (phage binding ELISA)” value [6] was 2.47.

B21: Phage-489 (peptide, not shown: large carriers)
peptide: YCEGHSQEYLWKCL
notes: as for B7
In the case of B21, the “Anti-CD28 Fab signal in the presence of CD28 (phage binding ELISA)” value [5] is reported as 0.07 and the “Anti-CD28 Fab signal (phage binding ELISA)” value [6] is reported as 2.36.

B22: Phage-19 (peptide, not shown: large carriers)
peptide: MDWCPIDLWNECFF
modifications: cysteine pairing not given here; also: phage-displayed pIII fusion, pIII and linker not given here
notes: Clonal phage supernatant
With B22 the “CD28 scFv signal in presence of CD28” value [1] was 0.187 and the “CD28 scFv signal” value [2] was 2.52.

In the case of MDWCPRDLWSECFF (peptide, not shown: large carriers, Clonal phage supernatant) [Phage-28], the “CD28 scFv signal in presence of CD28” value [1] is reported as 0.218 and the “CD28 scFv signal” value [2] is reported as 2.57.

B23: Phage-494 (peptide, not shown: large carriers)
peptide: YCEGHLPEYLEKCV
notes: as for B7
In the case of B23, the “Anti-CD28 Fab signal in the presence of CD28 (phage binding ELISA)” value [5] is reported as 0.06 and the “Anti-CD28 Fab signal (phage binding ELISA)” value [6] is reported as 2.11.

B24: Phage-490 (peptide, not shown: large carriers)
peptide: YCEGHSSEYIQKCL
notes: as for B7
With B24 the “Anti-CD28 Fab signal in the presence of CD28 (phage binding ELISA)” value [5] was 0.1 and the “Anti-CD28 Fab signal (phage binding ELISA)” value [6] was 2.25.

B25: Phage-486 (peptide, not shown: large carriers)
peptide: YCEGHLPEYLGKCL
notes: as for B7
In the case of B25, the “Anti-CD28 Fab signal in the presence of CD28 (phage binding ELISA)” value [5] is reported as 0.08 and the “Anti-CD28 Fab signal (phage binding ELISA)” value [6] is reported as 1.23.

B26: Phage-488 (peptide, not shown: large carriers)
peptide: YCEGHLPEYLAKCL
notes: as for B7
B26 was tested, and the “Anti-CD28 Fab signal in the presence of CD28 (phage binding ELISA)” value [5] was 0.1 and the “Anti-CD28 Fab signal (phage binding ELISA)” value [6] was 2.34.

For MDWCPMHLWHQCFN (peptide, not shown: large carriers, Clonal phage supernatant) [Phage-39], the “CD28 scFv signal in presence of CD28” value [1] was 0.299 and the “CD28 scFv signal” value [2] was 2.56.
